Laboratory results as given in article PMC9482650, “Quantitative fragmentomics allow affinity mapping of interactomes” (Nature Communications, 2022).

Columns and labels:
Experiment in all cases: holdup assay
Set-up in all cases: key: below the threshold = too weak to quantify, mostly under pKd 3.1 to 4
[1] = target: MAGI1_1, Q96QZ7
[2] = target: T1, APBA3_1, O96018
T1 sequence (O96018 389-490, limits assumed, looked up): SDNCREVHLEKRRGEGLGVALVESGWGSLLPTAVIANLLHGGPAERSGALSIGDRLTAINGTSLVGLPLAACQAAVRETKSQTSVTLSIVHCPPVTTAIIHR

[3] = target: T2, DFNB31_3, Q9P202
T2 sequence (Q9P202 811-907, limits assumed, looked up): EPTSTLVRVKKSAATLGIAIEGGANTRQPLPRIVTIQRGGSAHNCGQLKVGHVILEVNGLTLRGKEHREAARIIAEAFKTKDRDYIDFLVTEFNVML

[4] = target: MAGI1_2, Q96QZ7
Chain of MAGI1_2, Q96QZ7 (Q96QZ7 456-580): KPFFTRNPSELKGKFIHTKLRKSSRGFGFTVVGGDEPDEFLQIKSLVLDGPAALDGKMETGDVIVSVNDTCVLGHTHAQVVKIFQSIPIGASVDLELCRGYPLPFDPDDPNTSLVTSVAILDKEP

[5] = target: T3, MPDZ_12, O75970
T3 sequence (O75970 1857-1958, limits assumed, looked up): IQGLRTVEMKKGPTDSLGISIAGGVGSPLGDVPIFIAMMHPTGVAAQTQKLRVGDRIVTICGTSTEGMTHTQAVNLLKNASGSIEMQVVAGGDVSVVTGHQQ

[6] = target: T4, PDZD7_3, Q9H5P4
T4 sequence (Q9H5P4 857-944, limits assumed, looked up): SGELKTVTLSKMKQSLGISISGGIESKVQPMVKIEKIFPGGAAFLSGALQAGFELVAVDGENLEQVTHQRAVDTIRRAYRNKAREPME

[7] = target: DLG4_3, P78352
Chain of DLG4_3, P78352 (P78352 306-403): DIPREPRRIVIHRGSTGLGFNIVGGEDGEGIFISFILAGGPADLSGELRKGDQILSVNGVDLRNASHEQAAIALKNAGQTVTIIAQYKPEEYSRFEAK

[8] = target: FRMPD2_3, Q68DX3
Chain of FRMPD2_3, Q68DX3 (Q68DX3 1073-1166): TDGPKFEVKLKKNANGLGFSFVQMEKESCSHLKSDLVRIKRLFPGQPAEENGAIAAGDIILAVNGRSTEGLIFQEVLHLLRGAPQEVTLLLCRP

[9] = target: T5, MPP6, Q9NZW5
T5 sequence (Q9NZW5 125-219, limits assumed, looked up): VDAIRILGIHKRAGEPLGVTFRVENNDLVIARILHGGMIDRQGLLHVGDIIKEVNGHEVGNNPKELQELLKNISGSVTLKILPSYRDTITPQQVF

[10] = target: T6, SYNJ2BP, P57105
T6 sequence (P57105 8-110, limits assumed, looked up): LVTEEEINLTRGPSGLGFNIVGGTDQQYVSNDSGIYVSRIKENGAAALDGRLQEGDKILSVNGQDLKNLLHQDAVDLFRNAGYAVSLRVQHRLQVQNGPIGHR

[11] = target: T7, GRIP1_7, Q9Y3R0
T7 sequence (Q9Y3R0 999-1096, limits assumed, looked up): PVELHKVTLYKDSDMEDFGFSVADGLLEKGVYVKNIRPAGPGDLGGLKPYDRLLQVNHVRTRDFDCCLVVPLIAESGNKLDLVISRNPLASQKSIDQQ

[12] = target: T8, PTPN13_1, Q12923
T8 sequence (Q12923 1088-1188, limits assumed, looked up): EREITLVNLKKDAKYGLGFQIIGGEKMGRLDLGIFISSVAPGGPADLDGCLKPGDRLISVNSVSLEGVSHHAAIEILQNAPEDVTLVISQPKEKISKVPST

[13] = target: PDZRN4_1, Q6ZMN7
Chain of PDZRN4_1, Q6ZMN7 (Q6ZMN7 213-318): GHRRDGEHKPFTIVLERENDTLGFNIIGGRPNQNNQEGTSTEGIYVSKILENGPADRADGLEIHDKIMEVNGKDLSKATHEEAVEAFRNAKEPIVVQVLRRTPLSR

[14] = target: GRID2IP_1, A4D2P6
Chain of GRID2IP_1, A4D2P6 (A4D2P6 1-87): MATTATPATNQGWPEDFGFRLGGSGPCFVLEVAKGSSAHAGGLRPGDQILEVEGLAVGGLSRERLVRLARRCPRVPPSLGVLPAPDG

[15] = target: GRID2IP_2, A4D2P6
Chain of GRID2IP_2, A4D2P6 (A4D2P6 272-370): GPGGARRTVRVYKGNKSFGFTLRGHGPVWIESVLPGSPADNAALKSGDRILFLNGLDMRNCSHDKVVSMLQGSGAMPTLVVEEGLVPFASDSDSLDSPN

[16] = target: NHERF2_2, Q15599
Chain of NHERF2_2, Q15599 (Q15599 142-238): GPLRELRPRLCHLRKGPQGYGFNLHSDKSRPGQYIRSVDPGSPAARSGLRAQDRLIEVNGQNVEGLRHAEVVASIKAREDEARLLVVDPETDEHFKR

[17] = target: DLG4_2, P78352
Chain of DLG4_2, P78352 (P78352 155-259): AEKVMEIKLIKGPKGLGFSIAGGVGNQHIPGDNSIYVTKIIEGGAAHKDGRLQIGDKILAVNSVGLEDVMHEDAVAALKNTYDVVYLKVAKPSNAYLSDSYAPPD

[18] = target: Inadl_8, Q8NI35
Chain of Inadl_8, Q8NI35 (Q8NI35 1425-1530): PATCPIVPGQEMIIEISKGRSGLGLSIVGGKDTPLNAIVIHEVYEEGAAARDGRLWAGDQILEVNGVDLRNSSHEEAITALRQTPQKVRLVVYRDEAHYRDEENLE

[19] = target: DLG5_1, Q8TDM6
Chain of DLG5_1, Q8TDM6 (Q8TDM6 617-713): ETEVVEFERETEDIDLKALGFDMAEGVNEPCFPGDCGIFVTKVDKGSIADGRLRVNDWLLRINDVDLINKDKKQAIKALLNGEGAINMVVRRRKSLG

[20] = target: T9, DFNB31_1, Q9P202
T9 sequence (Q9P202 135-233, limits assumed, looked up): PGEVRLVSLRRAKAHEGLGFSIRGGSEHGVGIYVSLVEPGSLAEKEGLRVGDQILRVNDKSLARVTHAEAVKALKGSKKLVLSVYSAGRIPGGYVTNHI

[21] = target: T10, GRIP1_3, Q9Y3R0
T10 sequence (Q9Y3R0 247-346, limits assumed, looked up): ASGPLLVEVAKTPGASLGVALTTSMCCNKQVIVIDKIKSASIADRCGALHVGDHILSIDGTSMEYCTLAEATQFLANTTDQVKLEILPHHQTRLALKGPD

[22] = target: TJP1_3, Q07157
Chain of TJP1_3, Q07157 (Q07157 416-512): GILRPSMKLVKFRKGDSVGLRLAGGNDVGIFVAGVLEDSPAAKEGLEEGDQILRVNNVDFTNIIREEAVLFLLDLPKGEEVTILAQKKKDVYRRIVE

[23] = target: T11, SHANK1, Q9Y566
T11 sequence (Q9Y566 658-767, limits assumed, looked up): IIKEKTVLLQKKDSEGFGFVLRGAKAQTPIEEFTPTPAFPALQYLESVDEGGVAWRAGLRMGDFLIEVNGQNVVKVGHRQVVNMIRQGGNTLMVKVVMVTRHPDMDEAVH

[24] = target: DLG1_1, Q12959
[25] = target: T12, APBA1_2, Q02410
T12 sequence (Q02410 742-832, limits assumed, looked up): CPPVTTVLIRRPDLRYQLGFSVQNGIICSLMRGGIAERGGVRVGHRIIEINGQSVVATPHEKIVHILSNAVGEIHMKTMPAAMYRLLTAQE

[26] = target: AHNAK1, Q09666
Chain of AHNAK1, Q09666 (Q09666 4-100): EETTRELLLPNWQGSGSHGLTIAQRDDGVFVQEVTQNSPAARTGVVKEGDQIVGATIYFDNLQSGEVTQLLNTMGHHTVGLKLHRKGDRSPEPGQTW

[27] = plain residues with an end cap or a label only (N-terminal biotin on a linker: ado-ado)
[28] = modified: phospho on T at position -2 from the C-terminal residue

Chain of MAGI1_1, Q96QZ7 (Q96QZ7 1-106): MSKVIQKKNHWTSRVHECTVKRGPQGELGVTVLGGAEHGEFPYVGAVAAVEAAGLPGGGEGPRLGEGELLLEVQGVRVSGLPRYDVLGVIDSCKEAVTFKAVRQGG

Binder: SAGADSETHC [SLCO1B1, Q9Y6L6]
- pKd [1, 27]: below the threshold
- pKd [2, 27]: below the threshold
- pKd [3, 27]: 3.55
- pKd [4, 27]: below the threshold
- pKd [5, 27]: below the threshold
- pKd [6, 27]: below the threshold
- pKd [7, 27]: below the threshold
- pKd [8, 27]: below the threshold
- pKd [9, 27]: 3.58
- pKd [10, 27]: below the threshold
- pKd [11, 27]: below the threshold
- pKd [12, 27]: below the threshold
- pKd [13, 27]: below the threshold
- pKd [14, 27]: below the threshold
- pKd [15, 27]: below the threshold
- pKd [16, 27]: 3.72
- pKd [17, 27]: below the threshold
- pKd [18, 27]: below the threshold
- pKd [19, 27]: below the threshold
- pKd [20, 27]: below the threshold
- pKd [21, 27]: below the threshold
- pKd [22, 27]: below the threshold
- pKd [23, 27]: below the threshold
- pKd [24, 27]: below the threshold
- pKd [25, 27]: below the threshold
- pKd [26, 27]: below the threshold

Binder: SRSRRRETAL [HPV33-E6_-2P, P06427]
- pKd [1, 28]: below the threshold
- pKd [2, 28]: below the threshold
- pKd [3, 28]: 4.02
- pKd [4, 28]: below the threshold
- pKd [5, 28]: below the threshold
- pKd [6, 28]: 3.74
- pKd [7, 28]: below the threshold
- pKd [8, 28]: below the threshold
- pKd [9, 28]: 3.68
- pKd [10, 28]: below the threshold
- pKd [11, 28]: below the threshold
- pKd [12, 28]: below the threshold
- pKd [13, 28]: below the threshold
- pKd [14, 28]: below the threshold
- pKd [15, 28]: below the threshold
- pKd [16, 28]: below the threshold
- pKd [17, 28]: below the threshold
- pKd [18, 28]: below the threshold
- pKd [19, 28]: below the threshold
- pKd [20, 28]: below the threshold
- pKd [21, 28]: below the threshold
- pKd [22, 28]: below the threshold
- pKd [23, 28]: below the threshold
- pKd [24, 28]: below the threshold
- pKd [25, 28]: below the threshold
- pKd [26, 28]: below the threshold

Binder: GVHSNDHSVV [LPAR1, Q92633]
- pKd [1, 27]: below the threshold
- pKd [2, 27]: below the threshold
- pKd [3, 27]: below the threshold
- pKd [4, 27]: below the threshold
- pKd [5, 27]: below the threshold
- pKd [6, 27]: 3.68
- pKd [7, 27]: below the threshold
- pKd [8, 27]: below the threshold
- pKd [9, 27]: below the threshold
- pKd [10, 27]: 3.7
- pKd [11, 27]: below the threshold
- pKd [12, 27]: below the threshold
- pKd [13, 27]: below the threshold
- pKd [14, 27]: below the threshold
- pKd [15, 27]: 3.96
- pKd [16, 27]: below the threshold
- pKd [17, 27]: 4.01
- pKd [18, 27]: 3.62
- pKd [19, 27]: below the threshold
- pKd [20, 27]: below the threshold
- pKd [21, 27]: below the threshold
- pKd [22, 27]: below the threshold
- pKd [23, 27]: below the threshold
- pKd [24, 27]: 3.74
- pKd [25, 27]: 3.63
- pKd [26, 27]: below the threshold

Binder: WAKEKQHTRL [SLC17A1, Q14916]
- pKd [1, 27]: below the threshold
- pKd [2, 27]: below the threshold
- pKd [3, 27]: below the threshold
- pKd [4, 27]: 4.7
- pKd [5, 27]: below the threshold
- pKd [6, 27]: 4.87
- pKd [7, 27]: below the threshold
- pKd [8, 27]: below the threshold
- pKd [9, 27]: below the threshold
- pKd [10, 27]: below the threshold
- pKd [11, 27]: below the threshold
- pKd [12, 27]: below the threshold
- pKd [13, 27]: 3.85
- pKd [14, 27]: below the threshold
- pKd [15, 27]: 4.25
- pKd [16, 27]: 4.39
- pKd [17, 27]: 4.04
- pKd [18, 27]: below the threshold
- pKd [19, 27]: below the threshold
- pKd [20, 27]: 3.65
- pKd [21, 27]: below the threshold
- pKd [22, 27]: below the threshold
- pKd [23, 27]: 4.91
- pKd [24, 27]: 3.64
- pKd [25, 27]: below the threshold
- pKd [26, 27]: below the threshold

Binder: DYSNLRETDI [ADRA1D, P25100]
- pKd [1, 27]: below the threshold
- pKd [2, 27]: below the threshold
- pKd [3, 27]: 3.91
- pKd [4, 27]: below the threshold
- pKd [5, 27]: below the threshold
- pKd [6, 27]: 4.97
- pKd [7, 27]: below the threshold
- pKd [8, 27]: below the threshold
- pKd [9, 27]: 3.63
- pKd [10, 27]: 4.43
- pKd [11, 27]: below the threshold
- pKd [12, 27]: below the threshold
- pKd [13, 27]: below the threshold
- pKd [14, 27]: below the threshold
- pKd [15, 27]: below the threshold
- pKd [16, 27]: below the threshold
- pKd [17, 27]: 4.54
- pKd [18, 27]: 3.56
- pKd [19, 27]: 3.5
- pKd [20, 27]: 5.02
- pKd [21, 27]: below the threshold
- pKd [22, 27]: below the threshold
- pKd [23, 27]: below the threshold
- pKd [24, 27]: 4.1
- pKd [25, 27]: below the threshold
- pKd [26, 27]: below the threshold
